Assay results as given in US20260035464A1.

How the values were obtained:
[1] = target: human BTLA extracellular domain with C-terminal 10xHis tag (human) (UniProt Q7Z6A9); assay: BLI (Octet RED96), antibody on AHC biosensor, His-tag-huBTLA in solution
[2] = target: human BTLA extracellular domain with C-terminal 10xHis tag (human) (UniProt Q7Z6A9); assay: BLI (Octet RED96), antibody on AHC biosensor, His-tag-huBTLA in solution; column head prints nM, but Koff/Kon shows the values are in M

Sequence of human BTLA extracellular domain with C-terminal 10xHis tag (human) (Q7Z6A9 other isoform, or with tags, fused parts or gaps): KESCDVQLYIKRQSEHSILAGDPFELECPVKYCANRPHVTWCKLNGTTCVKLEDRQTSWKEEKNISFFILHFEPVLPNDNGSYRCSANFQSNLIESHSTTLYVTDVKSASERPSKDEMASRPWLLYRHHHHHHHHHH

koff [1]: 0.00124 s⁻¹ | kon [1]: 621000 M⁻¹ s⁻¹ | Kd [2]: 2.09 nM
Substance: Icatolimab (antibody)
